Changes are numbered by the printed parent chain.
B1: PS540: amino acid recognition protein, SEQ ID NO: 169 (protein, listed as Clathrospora elynae)
chain: MPCGHIFKNGEATYRCKTCTADDTCVLCARCFDASDHEGHQVFVSVSPGNSGCCDCGDDEAWVRPVHCNMHSA
B2: PS541: amino acid recognition protein, SEQ ID NO: 170 (protein)
chain: MRCGHIFRAGEATYRCITCAADDTCVLCSRCFDASDHTGHQYQISLSSGNCGCCDCGDEEAWRLPLFCAIHTD
modifications: Aspergillus neoniger
B3: PS542: amino acid recognition protein, SEQ ID NO: 171 (protein, listed as Trichuris suis)
chain: MRCNHVFANGEATYSCRGCAADPTCVLCASCFELSAHKEHKYMITTSSGTGYCDCGDPEAWKADPFCQQHQP
B4: PS543: amino acid recognition protein, SEQ ID NO: 172 (protein, listed as Trichinella spiralis)
chain: MKCNRQLICGEPTYCCLDCACDQTCIFCHACFQSSEHKNHRYSMSTSEGSGTCDCGDKEAWKSNYYCLNHKP
B5: PS544: amino acid recognition protein, SEQ ID NO: 173 (protein, listed as Homo sapiens)
chain: MGPLGSLCGRVFKSGETTYSCRDCAIDPTCVLCMDCFQDSVHKNHRYKMHTSTGGGFCDCGDTEAWKTGPFCVNHEP
B6: Homo sapiens UBR2: amino acid recognition protein, SEQ ID NO: 174 (protein, listed as Homo sapiens)
chain: MGPLGSLCGRVFKVGEPTYSCRDCAVDPTCVLCMECFLGSIHRDHRYRMTTSGGGGFCDCGDTEAWKEGPYCQKHE
B7: PS615: amino acid recognition protein, SEQ ID NO: 175 (protein, listed as Kluyveromyces marxianus)
chain: MVNEHRGSQCSKQCHGTETVYYCFDCTKNPLYEICEECFDETQHMGHRYTSRVVTRPEGKVCHCGDISGYNNPEKAFQCKI
B8: PS616: amino acid recognition protein, SEQ ID NO: 176 (protein, listed as Kluyveromyces lactis)
chain: B7 chain with V2H, E4D, E37D, T42S, M45I, G69S, N72D, E74K, K80R
B9: PS617: amino acid recognition protein, SEQ ID NO: 177 (protein, listed as Eremothecium sinecaudum)
chain: MPKEHRGTSCNKHCQPTETVYYCFDCTKNPLYEICEECFDADKHLGHRWTSKVVSRPEGKICHCGDPSGLTDPENGYECKN
B10: PS618: amino acid recognition protein, SEQ ID NO: 178 (protein, listed as Zygosaccharomyces bailii)
chain: MNASHKGAMCSKQCYPTETVFYCFTCTTNPLYEICESCFDEEKHRGHLYTAKVVVRPEGRVCHCGDPFVFKEPRFAFLCKN
B11: PS619: amino acid recognition protein, SEQ ID NO: 179 (protein, listed as Vanderwaltozyma polyspora)
chain: MENLHIGSCCNRQCYPTQTVYYCLTCTINPLYEICELCFDEDKHVGHTYISKSVIRPEGKVCHCGNPNVFKKPEFAFNCKN
B12: PS620: amino acid recognition protein, SEQ ID NO: 180 (protein, listed as Saccharomyces cerevisiae)
chain: MGNMHIGTACTRLCFPSETIYYCFTCSTNPLYEICELCFDKEKHVNHSYVAKVVMRPEGRICHCGDPFAFNDPSDAFKCKN
B13: PS621: amino acid recognition protein, SEQ ID NO: 181 (protein, listed as Kluyveromyces marxianus)
chain: MHSKFSHAGRICGAKFKVGEPIYRCKECSFDDTCVLCVNCFNPKDHTGHHVYTTICTEFNNGICDCGDKEAWNHTLFCKAEEG
B14: PS622: amino acid recognition protein, SEQ ID NO: 182 (protein, listed as Kluyveromyces dobzhanskii)
chain: MHSRFNHAGRICASKFKVGEPIYRCKECSFDDTCVICVNCFNPKDHVGHHVYTSICSEFNNGICDCGDTEAWNHDMHCKADEN
B15: PS623: amino acid recognition protein, SEQ ID NO: 183 (protein, listed as Kazachstania naganishii)
chain: MSKQFRHKGRNCGRKFRLGEPLYRCQECGYDDTCVLCINCFNPKDHEGHHIYTDICNDFTSGICDCGDEEAWLSPLHCKAEED
B16: PS624: amino acid recognition protein, SEQ ID NO: 184 (protein, listed as Eremothecium sinecaudum)
chain: MPKNHNHKGRNCGRSFQPGEPLYRCQECAYDDTCVLCIRCFNPLDHVNHHVSTHICSEFNDGICDCGDVEAWNVELNCKAEED
B17: PS625: amino acid recognition protein, SEQ ID NO: 185 (protein, listed as Saccharomyces eubayanus)
chain: MGDVHKHTGRNCGRKFKIGEPLYRCHECGCDDTCVLCIHCFNPKDHINHHVCTDICSEFTSGICDCGDEEAWNSSLHCKAEEQ
B18: PS626: amino acid recognition protein, SEQ ID NO: 186 (protein, listed as Zygosaccharomyces parabailii)
chain: MYHVYKHSGRNCGRKFKVGEPIYRCHECGYDETCVLCIHCFNPKDHDSHHVYIDICSEFSTGICDCGDTEAFVNPLHCKAEED
B19: PS627: amino acid recognition protein, SEQ ID NO: 187 (protein, listed as Zygosaccharomyces mellis)
chain: MPKYHQHSGRYCGRKFKVGEPIYRCHECGFDETCVICIHCFNAKDHETHHVSVSICSEYSTGICDCGDTEAFVNPLHCRAEEV
B20: PS628: amino acid recognition protein, SEQ ID NO: 188 (protein)
chain: MSHRAYHKNSPCGRIFRKGEPIHRCLTCGFDDTCALCSHCFQPEYHEGHKVHIGICQRENGGVCDCGDPEAWTQELFCPYAVD
modifications: Candida albicans
B21: PS629: amino acid recognition protein, SEQ ID NO: 189 (protein, listed as Pichia pastoris)
chain: MCPNYKHHGRPCARQFKQGEPIYRCYECGFDETCVMCMHCFNREQHRDHEVSISIASSSNDGICDCGDPQAWNIELHCQSELD
B22: Escherichia coli leucyl/phenylalanyl-tRNA-protein transferase: amino acid recognition protein, SEQ ID NO: 111 (protein, listed as Escherichia coli)
chain: MRLVQLSRHSIAFPSPEGALREPNGLLALGGDLSPARLLMAYQRGIFPWFSPGDPILWWSPDPRAVLWPESLHISRSMKRFHKRSPYRVTMNYAFGQVIEGCASDREEGTWITRGVVEAYHRLHELGHAHSIEVWREDELVGGMYGVAQGTLFCGESMFSRMENASKTALLVFCEEFIGHGGKLIDCQVLNDHTASLGACEIPRRDYLNYLNQMRLGRLPNNFWVPRCLFSPQELE

Legend:
[1] = Persistence of triplet state quenchers in solution; format: physicochemical
Source text: FIGS. 11A-11B show the persistence of cyclooctatetraene (FIG. 11A) and COT-PEG3-sulfonate (triethylammonium salt) (FIG. 11B) in solution.
Cyclooctatetraene (COT)-based triplet state quenchers (TSQs) were used in place of or in addition to the currently used Trolox TSQ. TSQs can enhance photophysical properties of dyes in single-molecule studies, and the optimal TSQ can depend on the class of dye used. Trolox and COT quench triplet states by different mechanisms.
Water-soluble COT conjugates were made to improve solution stability of these TSQs (FIG. 11). The derivatives were made via various amide coupling reactions between COT-CO2H and the appropriate amine. COT-CO2H can be purchased or made in two steps from the parent COT compound.

[2] = system: amino acid at a terminal position of a polypeptide; conditions: Table 2; amino acid at terminal position (phosphotyrosine also internal); inferred from literature and/or demonstrated by the inventors; cited from earlier work

| Molecule | Binding Pref. [2] | also measured |
| --- | --- | --- |
| C1=CC=CC=CC=C1 [unsubstituted COT, cyclooctatetraene] | – | stability (persistence) in solution ([1]; also in the presence of mineral oil): its concentration drops over time; water solubility ([1]; sequencing buffer): not fully water-soluble |
| B1 | K, R, H | – |
| B2 | K, R, H | – |
| B3 | K, R, H | – |
| B4 | K, R, H | – |
| B5 | K, R, H | – |
| B6 | K, R, H | – |
| B7 | K, R, H | – |
| B8 | K, R, H | – |
| B9 | K, R, H | – |
| B10 | K, R, H | – |
| B11 | K, R, H | – |
| B12 | K, R, H | – |
| B13 | K, R, H | – |
| B14 | K, R, H | – |
| B15 | K, R, H | – |
| B16 | K, R, H | – |
| B17 | K, R, H | – |
| B18 | K, R, H | – |
| B19 | K, R, H | – |
| B20 | K, R, H | – |
| B21 | K, R, H | – |
| B22 | K, R | – |
